Data from the DeepSol protein solubility set.

Assay: soluble on expression in E. coli; label from the status in PepcDB or PDB records
For “MSLSHTANPCCSHPCQNRGVCMSVGFDQYKCDCTRTGFYGENCSTPEFLTRIKLFLKPTPNTVHYILTHFKGFWNVVNNIPFLRNAIMSYVLTSRSHLIDSPPTYNADYGYKSWEAFSNLSYYTRALPPVPDDCPTPLGVKGKKQLPDSNEIVEKLLLRRKFIPDPQGSNMMFAFFAQHFTHQFFKTDHKRGPAFTNGLGHGVDLNHIYGETLARQRKLRLFKDGKMKYQIIDGEMYPPTVKDTQAEMIYPPQVPEHLRFAVGQEVFGLVPGLMMYATIWLREHNRVCDVLKQEHPEWGDEQLFQTSRLILIGETIKIVIEDYVQHLSGYHFKLKFDPELLFNKQFQYQNRIAAEFNTLYHWHPLLPDTFQIHDQKYNYQQFIYNNSILLEHGITQFVESFTRQIAGRVAGGRNVPPAVQKVSQASIDQSRQMKYQSFNEYRKRFMLKPYESFEELTGEKEMSAELEALYGDIDAVELYPALLVEKPRPDAIFGETMVEVGAPFSLKGLMGNVICSPAYWKPSTFGGEVGFQIINTASIQSLICNNVKGCPFTSFSVPDPELIKTVTINASSSRSGLDDINPTVLLKERSTELEGHHHHHH”, the “soluble on expression in E. coli” value was “not soluble”.
In the case of “MSLSHVLQELRDVRQASHKVSQGARVLFPCELLSALSLLQTSAQASYQAVVETGLGLARGLREQILKAAAILGVADPSGIYIQPEDEHRLDVVGRLFEAMLRDSCLYPQSRVWIGHLLVPVAKVALRDSCLLETDHHPVWRLLMLLVDACNGNKGEDPAEHALLMQVRETVETVVREFDDDVTLFQTQQAALSMHYEQYVAKTRNTQRHVAECEITEERRQQAQRVADDALKQCLLGHVLPQQIEHFLRRIWCAHVQQVALLNDDNGQALKAVLALGDALLVQWRQASEGSIPERPWLYEERAGILEAFCIAGMTLVEAEAGFANLQHVLAAATPQSSVIATSTQTQSFDTFISVPDTSATSELNTASPSYFRELPLGTWLDFIGIDGRIQSGQLSWVSPISGRLMFVNHRGRRLCVTAPEELSTLMCLGRLRLHRAGDSLMSEGHHHHHH”, the “soluble on expression in E. coli” value is reported as “not soluble”.
For “MSLSKNVTYEGIYVENINVSNLNEKDLKEKLNEHYSDLLNNFKITFNYKDNFNETFSAKDLGFFFDINDLSNQVFSFGKNSNIFSNTIERLKLKSNPKYFQFKPESNSEVLSEKLSEISNKINKEKVEPTISFSNDSISATKEQIGYKLDLEKLTSEIVNDLNNSHDSLNCTINIPVEEIKPKLTQETVNNMVILGSYTTKLPSLTGGRTKNISNYLSKLNGTILMPGDIFSADKEGEDRTESNGYTYAPGYIGNKVVDILAGGICQGVTTLYNSVLYADLKIVERAPHSLPVTYAPIGRDATMASGVIDFKFQNNMNNPVIVQTYITSSGQVKSNIWGIKEDPGKEIVISVDQHGPKSSTTYKETYENGVLVKKEVLSKDKYNEGHHHHHH”, the “soluble on expression in E. coli” value was “soluble”.
With “MSLSKRSIPNVDWANQLENAIRQFVKEKLELIMREEIKNFLEIEQAGTPNMRNGYYQRNLDTQYGRIEGLLVPRDRNGEFQTQLFAPYQRHTGWLEEAIIRMYQSGMSTREIGKFIERILGSTYSPATISRITDVVKEDIEKWHARPLHQRYSVLYLDGLYVKLRRDTVEKEVIYVVLGVNEEGYREILDFFVGGQESAYVWQEILQQLYKRGVKEVLLGVFDGLPGLEEAFKAVYPKADVQRCVVHKVRNTLSRVRKKDQFEMAEDLKLIYRSPNKEIALEMFQQFQSKWSHKYPREVQSWANELDVLLTFMDYPSSIRSVIYTTNAIERTIKEIRKRLKPMNSLSSLEAAEKVVYLTIQDFNEKWAGRKLRGFAEAQEALQRMFEEREGHHHHHH” the “soluble on expression in E. coli” value was “not soluble”.
For “MSLSKSDDGDSEESFSISVQSGFEAMSQELCIVMCLKDLTSIVDIKTSSRPAMIGSLTDGSTETFWESGDEDKNKTKNITINCVKGINARYVSVHVDNSRDLGNKVTSMTFLTGKAVEELCRIKQVDLDSRHIGWVTSELPGGDNQIIKIELKGPENTLRVRQVKVLGWKDGESTKIAGQISASVAQQRSCEAETLRVFRLITSQVFGKLISGDAEEGHHHHHH”, the “soluble on expression in E. coli” value was “soluble”.
For “MSLSKTYHFIGIKGSGMSALALMLHQMGHKVQGSDVEKYYFTQRGLEQAGITILPFDEKNLDGDMEIIAGNAFRPDNNVEIAYADQNGISYKRYHEFLGSFMRDFVSMGVAGAHGKTSTTGMLSHVLSHITDTSFLIGDGTGRGSANAKYFVFESDEYERHFMPYHPEYSIITNIDFDHPDYFTSLEDVFNAFNDYAKQITKGLFVYGEDAELRKITSDAPIYYYGFEAEGNDFVASDLLRSTTGSTFTVHFRGQNLGQFHIPTFGRHNIMNATAVIGLLYTAGFDLNLVREHLKTFAGVKRRFTEKIVNDTVIIDDFAHHPTEIIATLDAARQKYPSKEIVAVFQPHTFTRTIALLDDFAHALNQADAVYLAQIYGSAREVDHGDVKVEDLANKINKKHQVITVENVSPLLDHDNAVYVFMGAGDIQTYEYSFERLLSNLTSNVQEGHHHHHH”, the “soluble on expression in E. coli” value was “soluble”.
In the case of “MSLSKVFTIGEILVEIMASKIGQPFDQPGIWNGPYPSGAPAIFIDQVTRLGVPCGIISCVGNDGFGDINIHRLAADGVDIRGISVLPLEATGSAFVTYHNSGDRDFIFNIKNAACGKLSAQHVDENILKDCTHFHIMGSSLFSFHMVDAVKKAVTIVKANGGVISFDPNIRKEMLDIPEMRDALHFVLELTDIYMPSEGEVLLLSPHSTPERAIAGFLEEGVKEVIVKRGNQGASYYSANEQFHVESYPVEEVDPTGAGDCFGGAWIACRQLGFDAHRALQYANACGALAVTRRGPMEGTSRLMEIETFIQRHDMSIREAAQEGHHHHHH”, the “soluble on expression in E. coli” value is reported as “soluble”.
For “MSLSMSTIAKVAARAGVSPTTVSHVINHSDRVSKPLRERVEAAIKDLGYKPNPQAQSLRTGRTNIVAMLIPDIRNPFYPELVKAAQSELEVAGLDMLIFNTDVPGGQSQDHGREYLRQIGNKRVDGLIVGDFALHGMHDALMRVETPTVFIGNLPNHAVDCVRIDDFGGGYQMGAYLAGKGHRRIAHVTGPSFFAEAMSRADGFEQGLADHGATPDPGLRFEGSYLAPSGKAAAEWLLAGHGGDLPSAVFFGNYLMAAGALAEFYDRGIRIPDDFKVAVFGDQPQLEYVRPRLTRVGNAPAELARRATRMLLERINGTYEGEPRSEVVSCVLREFETEGHHHHHH”, the “soluble on expression in E. coli” value was “soluble”.
In the case of “MSLSNIETVPASIEMKPNPTITVFERSPDGGRGLARDMPVRWALEEVGQPYHVRRLSFEAMKEASHLAYQPFGQIPSYEQGDLILFESGAIVMHIAQHHSGLLPEDQLRRARTVAWMFAALNTIEPSILNFTTVWLFERNEPWHEARLARTKEQLLKRLDELSAWLGDREWLEGSFSAADILMICVLRRLESSGILKDYGNLLAYVERGKARPAFKRAFDAQLAVFTAASKNEGHHHHHH”, the “soluble on expression in E. coli” value is reported as “soluble”.
With “MSLSPAQLAAVRRSFRNGRASLTRRSLLRASAGGALAVGGLGALSACGIPAAGRTEGGVSAEDHSAEEKTINFSNWPEYIDVDDSGKRHPTLDAFAKRTGIQVKYTEDINDNDEFFGKIQPQLAAGQSTGRDLIVLTDWLAARMIRLGYVQKLDPSHLPHAFANLSDQFRAPDWDPGRAYSYPWQGISTVIAYNKKALDGVEVKSVSDLLDNPKLKGRVGFLTEMRDSVGMTMLDMGKDPAKFTDDDYDAVIARLQKAVDKGQIRRFTGNDYTSDLSKGDFAACIAWAGDIVQLQADNPDVGYVIPDSGYMTSTDNMLIPNKARHKTNAERLIDYYYELEPAAELAAYINYVSPVAGVQPYLAKIDKSAADNPLIVPDKAMQAKSHAFRSLSSKEETAYQQKFAKLTGAEGHHHHHH” the “soluble on expression in E. coli” value was “soluble”.
With “MSLSQCQTLLSQINRRIESYENIPVFSFAQKLPLFDSNSTKLKLNSQTNEMMMELLSLVEQNKGKKILIVGHSDNTGSSSMNMTLSEQRALALRDWLIKRSDITVDNFITKGMGASEPVATNHTEAGREQNRRVEVLILPTQDRTRMTEPKPLEGHHHHHH” the “soluble on expression in E. coli” value was “soluble”.
With “MSLSQSALSELLEAFRAGDGVDLICESVRVALQDLIQLEASERIGAAPYERTDARVSERNGHRPRVLTTKAGDVELRIPKLRKGSFFPVILEPRRRIDQALYAVVMEAYVHGVSTRSVDDLVEAMGVDAGISKSEVSRICAGLDEQVGAFRTRALDHTEFPYVYLDATYLNVRNTTGQVTSMAVVVATGIAADGSREVLGLDVGDSEDETFWRGFLTALKQRGLHGVQLVISDQHAGLVKALRRSFQGAGHQRCRVHFARNLLAHVPKSHGDMVAAVFRTIFAQPDAAAVSHAWDEVRDQLAKSFPKIGPLMDEAKAEVTAFTVFPRAHWQKIWSTNPLERSTRRSSDAPGWSGSEGHHHHHH” the “soluble on expression in E. coli” value was “soluble”.
